In PMC9482650, “Quantitative fragmentomics allow affinity mapping of interactomes” (Nature Communications, 2022):
One block for each binder: values may come before it.

What was measured:
Experiment in all cases: holdup assay
Design in all cases: key: below the threshold = too weak to quantify, mostly under pKd 3.1 to 4
Details in all cases: plain residues with an end cap or a label only (N-terminal biotin on a linker: ado-ado)
SIPA1L2, Q9P2F8 = biological target: T1, SIPA1L2, Q9P2F8
T1 sequence (Q9P2F8 945-1036, limits assumed, looked up): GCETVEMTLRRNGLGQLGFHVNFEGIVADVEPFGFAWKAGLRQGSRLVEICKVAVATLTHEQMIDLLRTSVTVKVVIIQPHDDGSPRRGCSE

Inadl_4, Q8NI35 = biological target: Inadl_4, Q8NI35
Inadl_4, Q8NI35, sequence (Q8NI35 547-651): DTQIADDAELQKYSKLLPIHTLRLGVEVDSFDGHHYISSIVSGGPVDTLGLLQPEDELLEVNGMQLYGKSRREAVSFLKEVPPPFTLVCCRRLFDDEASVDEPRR

DLG2_3, Q15700 = biological target: DLG2_3, Q15700
GIPC2, Q8TF65 = biological target: GIPC2, Q8TF65
GIPC2, Q8TF65, sequence (Q8TF65 112-203): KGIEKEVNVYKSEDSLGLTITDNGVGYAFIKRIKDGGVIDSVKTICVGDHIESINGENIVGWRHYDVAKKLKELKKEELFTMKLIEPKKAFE

LNX1_2, Q8TBB1 = biological target: LNX1_2, Q8TBB1
LNX1_2, Q8TBB1, sequence (Q8TBB1 371-470): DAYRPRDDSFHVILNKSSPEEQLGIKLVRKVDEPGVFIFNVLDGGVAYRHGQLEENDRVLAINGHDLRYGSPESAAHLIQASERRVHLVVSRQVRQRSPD

PDLIM1, O00151 = biological target: PDLIM1, O00151
PDLIM1, O00151, sequence (O00151 1-87): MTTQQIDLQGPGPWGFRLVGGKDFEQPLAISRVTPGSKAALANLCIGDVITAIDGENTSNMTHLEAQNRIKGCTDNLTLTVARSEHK

HTRA2, O43464 = biological target: HTRA2, O43464
HTRA2, O43464, sequence (O43464 355-458): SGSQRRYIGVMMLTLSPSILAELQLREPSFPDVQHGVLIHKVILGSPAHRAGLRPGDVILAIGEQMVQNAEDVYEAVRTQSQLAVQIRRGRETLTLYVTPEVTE

SCRIB_1, Q14160 = biological target: SCRIB_1, Q14160
SCRIB_1, Q14160, sequence (Q14160 718-814): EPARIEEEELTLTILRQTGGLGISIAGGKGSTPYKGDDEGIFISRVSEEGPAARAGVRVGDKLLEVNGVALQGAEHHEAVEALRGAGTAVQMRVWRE

ARHGEF12, Q9NZN5-2 = biological target: ARHGEF12, Q9NZN5-2
ARHGEF12, Q9NZN5-2, sequence (Q9NZN5 other isoform, or with tags, fused parts or gaps): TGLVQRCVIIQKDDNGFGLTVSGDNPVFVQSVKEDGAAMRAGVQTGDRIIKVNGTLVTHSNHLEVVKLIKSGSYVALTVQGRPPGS

MAST2, Q6P0Q8 = biological target: MAST2, Q6P0Q8
MAST2, Q6P0Q8, sequence (Q6P0Q8 1099-1202): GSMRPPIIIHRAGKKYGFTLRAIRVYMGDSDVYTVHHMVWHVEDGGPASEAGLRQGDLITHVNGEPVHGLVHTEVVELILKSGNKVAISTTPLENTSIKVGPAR

Inadl_3, Q8NI35 = biological target: Inadl_3, Q8NI35
Inadl_3, Q8NI35, sequence (Q8NI35 359-469): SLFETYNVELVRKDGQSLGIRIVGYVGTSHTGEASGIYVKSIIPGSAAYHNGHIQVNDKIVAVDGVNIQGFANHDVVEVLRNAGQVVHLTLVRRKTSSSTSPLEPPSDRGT

GRIP1_2, Q9Y3R0 = biological target: T2, GRIP1_2, Q9Y3R0
T2 sequence (Q9Y3R0 145-248, limits assumed, looked up): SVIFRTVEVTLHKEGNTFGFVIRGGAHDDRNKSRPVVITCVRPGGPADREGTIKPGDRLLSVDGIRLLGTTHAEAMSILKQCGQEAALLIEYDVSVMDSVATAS

GRIP1_3, Q9Y3R0 = biological target: T3, GRIP1_3, Q9Y3R0
T3 sequence (Q9Y3R0 247-346, limits assumed, looked up): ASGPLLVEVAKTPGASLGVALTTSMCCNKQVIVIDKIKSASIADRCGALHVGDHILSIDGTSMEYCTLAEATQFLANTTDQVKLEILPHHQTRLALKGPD

LNX2_2, Q8N448 = biological target: T4, LNX2_2, Q8N448
T4 sequence (Q8N448 334-432, limits assumed, looked up): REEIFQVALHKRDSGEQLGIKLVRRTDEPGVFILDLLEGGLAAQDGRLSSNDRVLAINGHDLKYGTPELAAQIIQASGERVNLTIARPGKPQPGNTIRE

APBA2_1, Q99767 = biological target: T5, APBA2_1, Q99767
T5 sequence (Q99767 563-664, limits assumed, looked up): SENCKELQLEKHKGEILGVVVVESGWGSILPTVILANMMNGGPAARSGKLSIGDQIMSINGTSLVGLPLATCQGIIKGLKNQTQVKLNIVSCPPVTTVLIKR

SNTA1, Q13424 = biological target: T6, SNTA1, Q13424
T6 sequence (Q13424 82-180, limits assumed, looked up): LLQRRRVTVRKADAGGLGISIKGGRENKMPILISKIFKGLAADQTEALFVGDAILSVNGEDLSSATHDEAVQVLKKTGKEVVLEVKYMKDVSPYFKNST

ARHGEF11, O15085 = biological target: T7, ARHGEF11, O15085
T7 sequence (O15085 42-136, limits assumed, looked up): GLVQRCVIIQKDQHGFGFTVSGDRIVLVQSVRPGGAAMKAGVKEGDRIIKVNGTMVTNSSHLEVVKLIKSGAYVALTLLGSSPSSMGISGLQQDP

MPDZ_12, O75970 = biological target: T8, MPDZ_12, O75970
T8 sequence (O75970 1857-1958, limits assumed, looked up): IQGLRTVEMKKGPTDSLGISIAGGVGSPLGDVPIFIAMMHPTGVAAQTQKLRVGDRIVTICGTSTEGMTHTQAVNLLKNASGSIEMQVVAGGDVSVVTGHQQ

LDB3, O75112 = biological target: LDB3, O75112
LDB3, O75112, sequence (O75112 1-94): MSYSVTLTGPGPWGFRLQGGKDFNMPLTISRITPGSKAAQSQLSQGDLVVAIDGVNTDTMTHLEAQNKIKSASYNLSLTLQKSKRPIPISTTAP

PDZD7_3, Q9H5P4 = biological target: T9, PDZD7_3, Q9H5P4
T9 sequence (Q9H5P4 857-944, limits assumed, looked up): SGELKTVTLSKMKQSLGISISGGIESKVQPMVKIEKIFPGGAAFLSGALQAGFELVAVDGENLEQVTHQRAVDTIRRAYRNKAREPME

DLG2_2, Q15700 = biological target: DLG2_2, Q15700
GRIP1_4, Q9Y3R0 = biological target: T10, GRIP1_4, Q9Y3R0
T10 sequence (Q9Y3R0 467-571, limits assumed, looked up): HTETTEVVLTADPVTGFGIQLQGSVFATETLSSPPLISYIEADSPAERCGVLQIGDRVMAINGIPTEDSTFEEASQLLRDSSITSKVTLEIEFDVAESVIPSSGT

GRIP2_7, Q9C0E4 = biological target: GRIP2_7, Q9C0E4
GRIP2_7, Q9C0E4, sequence (Q9C0E4 934-1023): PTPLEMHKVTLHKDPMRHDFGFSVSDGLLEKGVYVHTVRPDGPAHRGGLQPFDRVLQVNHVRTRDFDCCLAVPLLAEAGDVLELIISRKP

Inadl_1, Q8NI35 = biological target: Inadl_1, Q8NI35
Inadl_1, Q8NI35, sequence (Q8NI35 113-229): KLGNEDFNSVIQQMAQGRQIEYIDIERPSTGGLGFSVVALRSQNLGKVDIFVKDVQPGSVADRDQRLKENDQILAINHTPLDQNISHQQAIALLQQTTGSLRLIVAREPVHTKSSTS

GOPC, Q9HD26 = biological target: GOPC, Q9HD26
PICK1, Q9NRD5 = biological target: PICK1, Q9NRD5
PICK1, Q9NRD5, sequence (Q9NRD5 17-115): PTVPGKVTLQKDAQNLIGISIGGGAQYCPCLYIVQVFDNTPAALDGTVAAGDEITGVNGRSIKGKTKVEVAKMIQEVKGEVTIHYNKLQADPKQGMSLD

PTPN13_1, Q12923 = biological target: T11, PTPN13_1, Q12923
T11 sequence (Q12923 1088-1188, limits assumed, looked up): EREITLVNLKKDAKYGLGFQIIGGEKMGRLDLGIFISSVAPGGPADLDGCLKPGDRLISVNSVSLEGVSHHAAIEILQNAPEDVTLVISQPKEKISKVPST

- pKd (SIPA1L2, Q9P2F8): below the threshold
- pKd (Inadl_4, Q8NI35): below the threshold
- pKd (DLG2_3, Q15700): below the threshold
- pKd (GIPC2, Q8TF65): below the threshold
- pKd (LNX1_2, Q8TBB1): below the threshold
- pKd (PDLIM1, O00151): 3.77
- pKd (HTRA2, O43464): below the threshold
- pKd (SCRIB_1, Q14160): 4.62
- pKd (ARHGEF12, Q9NZN5-2): 5.5
- pKd (MAST2, Q6P0Q8): 5.61
- pKd (Inadl_3, Q8NI35): below the threshold
- pKd (GRIP1_2, Q9Y3R0): below the threshold
- pKd (GRIP1_3, Q9Y3R0): below the threshold
- pKd (LNX2_2, Q8N448): below the threshold
- pKd (APBA2_1, Q99767): below the threshold
- pKd (SNTA1, Q13424): 4.33
- pKd (ARHGEF11, O15085): 4.65
- pKd (MPDZ_12, O75970): below the threshold
- pKd (LDB3, O75112): below the threshold
- pKd (PDZD7_3, Q9H5P4): 4.91
- pKd (DLG2_2, Q15700): 3.95
- pKd (GRIP1_4, Q9Y3R0): below the threshold
- pKd (GRIP2_7, Q9C0E4): below the threshold
- pKd (Inadl_1, Q8NI35): below the threshold
- pKd (GOPC, Q9HD26): 3.65
- pKd (PICK1, Q9NRD5): below the threshold
- pKd (PTPN13_1, Q12923): below the threshold
Binder: AAVENKVTDL [PLXNB1, O43157]

- pKd (SIPA1L2, Q9P2F8): below the threshold
- pKd (Inadl_4, Q8NI35): below the threshold
- pKd (DLG2_3, Q15700): below the threshold
- pKd (GIPC2, Q8TF65): below the threshold
- pKd (LNX1_2, Q8TBB1): below the threshold
- pKd (PDLIM1, O00151): below the threshold
- pKd (HTRA2, O43464): below the threshold
- pKd (SCRIB_1, Q14160): below the threshold
- pKd (ARHGEF12, Q9NZN5-2): below the threshold
- pKd (MAST2, Q6P0Q8): 4.16
- pKd (Inadl_3, Q8NI35): below the threshold
- pKd (GRIP1_2, Q9Y3R0): below the threshold
- pKd (GRIP1_3, Q9Y3R0): below the threshold
- pKd (LNX2_2, Q8N448): 3.53
- pKd (APBA2_1, Q99767): below the threshold
- pKd (SNTA1, Q13424): below the threshold
- pKd (ARHGEF11, O15085): below the threshold
- pKd (MPDZ_12, O75970): below the threshold
- pKd (LDB3, O75112): below the threshold
- pKd (PDZD7_3, Q9H5P4): 3.88
- pKd (DLG2_2, Q15700): 3.59
- pKd (GRIP1_4, Q9Y3R0): below the threshold
- pKd (GRIP2_7, Q9C0E4): below the threshold
- pKd (Inadl_1, Q8NI35): below the threshold
- pKd (GOPC, Q9HD26): below the threshold
- pKd (PICK1, Q9NRD5): 4.18
- pKd (PTPN13_1, Q12923): below the threshold
Binder: TRKRSGEAAV [PFKM, P08237]

Further lines, the binder ahead of its results:

Binder: PYPTADHMLA [JUP, P14923]
- pKd (SIPA1L2, Q9P2F8): below the threshold
- pKd (Inadl_4, Q8NI35): below the threshold
- pKd (DLG2_3, Q15700): 3.77
- pKd (GIPC2, Q8TF65): below the threshold
- pKd (LNX1_2, Q8TBB1): below the threshold
- pKd (PDLIM1, O00151): below the threshold
- pKd (HTRA2, O43464): below the threshold
- pKd (SCRIB_1, Q14160): below the threshold
- pKd (ARHGEF12, Q9NZN5-2): below the threshold
- pKd (MAST2, Q6P0Q8): below the threshold
- pKd (Inadl_3, Q8NI35): below the threshold
- pKd (GRIP1_2, Q9Y3R0): below the threshold
- pKd (GRIP1_3, Q9Y3R0): below the threshold
- pKd (LNX2_2, Q8N448): below the threshold
- pKd (APBA2_1, Q99767): below the threshold
- pKd (SNTA1, Q13424): below the threshold
- pKd (ARHGEF11, O15085): below the threshold
- pKd (MPDZ_12, O75970): below the threshold
- pKd (LDB3, O75112): below the threshold
- pKd (PDZD7_3, Q9H5P4): below the threshold
- pKd (DLG2_2, Q15700): below the threshold
- pKd (GRIP1_4, Q9Y3R0): below the threshold
- pKd (GRIP2_7, Q9C0E4): below the threshold
- pKd (Inadl_1, Q8NI35): below the threshold
- pKd (GOPC, Q9HD26): below the threshold
- pKd (PICK1, Q9NRD5): below the threshold
- pKd (PTPN13_1, Q12923): below the threshold

Binder: KPGKGSETVV [FZD4, Q9ULV1]
- pKd (SIPA1L2, Q9P2F8): below the threshold
- pKd (Inadl_4, Q8NI35): below the threshold
- pKd (DLG2_3, Q15700): 4.01
- pKd (GIPC2, Q8TF65): 3.57
- pKd (LNX1_2, Q8TBB1): 3.56
- pKd (PDLIM1, O00151): below the threshold
- pKd (HTRA2, O43464): below the threshold
- pKd (SCRIB_1, Q14160): 4.04
- pKd (ARHGEF12, Q9NZN5-2): below the threshold
- pKd (MAST2, Q6P0Q8): 4.91
- pKd (Inadl_3, Q8NI35): 3.55
- pKd (GRIP1_2, Q9Y3R0): below the threshold
- pKd (GRIP1_3, Q9Y3R0): below the threshold
- pKd (LNX2_2, Q8N448): 4.92
- pKd (APBA2_1, Q99767): below the threshold
- pKd (SNTA1, Q13424): 4.6
- pKd (ARHGEF11, O15085): 3.69
- pKd (MPDZ_12, O75970): below the threshold
- pKd (LDB3, O75112): below the threshold
- pKd (PDZD7_3, Q9H5P4): 4.67
- pKd (DLG2_2, Q15700): 4.87
- pKd (GRIP1_4, Q9Y3R0): below the threshold
- pKd (GRIP2_7, Q9C0E4): below the threshold
- pKd (Inadl_1, Q8NI35): below the threshold
- pKd (GOPC, Q9HD26): 3.73
- pKd (PICK1, Q9NRD5): below the threshold
- pKd (PTPN13_1, Q12923): below the threshold
